Columns and labels:
[1] = target: extracellular region of human F158 FcγRIIIa with C-terminal 6x His-tag and GST-tag (human) (UniProt P08637); assay: SPR (Table 3, not reproduced); receptor immobilized, antibody flowed
[2] = target: extracellular region of human V158 FcγRIIIa with C-terminal 6x His-tag and GST-tag (human) (UniProt P08637); assay: as above
[3] = target: T1, extracellular region of human FcγRIIIa, allotype not stated where cited (His/GST-tagged) (human) (UniProt P08637); assay: AlphaScreen competition, Figure 15
[4] = target: T1, extracellular region of human FcγRIIIa, allotype not given (His/GST-tagged) (human); assay: AlphaScreen, Figure 15; fold vs WT for FcγRIIIa divided by fold vs WT for FcγRIIb
[5] = target: human FcγRIIIa on PBMCs expressing heterozygous V158/F158 FcγRIIIa (human) (UniProt P08637); assay: cell-based or functional assay
[6] = target: extracellular region of human F158 FcγRIIIa with C-terminal 6x His-tag and GST-tag (human) (UniProt P08637); assay: SPR; receptor immobilized, antibody flowed

human FcγRIIIa on PBMCs expressing heterozygous V158/F158 FcγRIIIa (human), sequence (P08637 17-254): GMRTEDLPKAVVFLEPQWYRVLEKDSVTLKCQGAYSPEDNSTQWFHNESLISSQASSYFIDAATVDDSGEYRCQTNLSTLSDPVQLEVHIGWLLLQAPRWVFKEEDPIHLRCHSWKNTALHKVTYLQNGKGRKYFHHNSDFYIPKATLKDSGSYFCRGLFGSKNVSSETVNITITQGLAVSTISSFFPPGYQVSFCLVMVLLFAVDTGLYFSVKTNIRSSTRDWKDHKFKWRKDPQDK
T1 sequence (P08637 17-208): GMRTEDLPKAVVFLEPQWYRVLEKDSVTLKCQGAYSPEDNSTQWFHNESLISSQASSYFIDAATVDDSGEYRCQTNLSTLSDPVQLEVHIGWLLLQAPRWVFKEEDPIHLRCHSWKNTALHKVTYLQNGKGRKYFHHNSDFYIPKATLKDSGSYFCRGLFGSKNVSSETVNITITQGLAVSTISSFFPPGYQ
extracellular region of human F158 FcγRIIIa with C-terminal 6x His-tag and GST-tag (human), sequence (P08637 17-208): as above
extracellular region of human V158 FcγRIIIa with C-terminal 6x His-tag and GST-tag (human), sequence (P08637 17-208 F176V): as the sequence (P08637 17-208) above, with F160V counted along it

Substance	fold improvement over WT [1] [fold]	fold improvement over WT [2] [fold]	FcγRIIIa-fold (fold affinity relative to WT) [3] [fold]	ADCC log(EC50), DoHH-2 target cells [5]	fold enhancement in ADCC over WT alemtuzumab [5] [fold]	other results
S298A/E333A/K334A alemtuzumab (antibody)	4.7	1.7				
S239D/I332E Fc variant antibody (Figure 15; antibody context not stated)			192			
I332E alemtuzumab (antibody)	10.1					
S239D/A330L/I332E Fc variant antibody (Figure 15; antibody context not stated)			139			FcγRIIIa-fold:FcγRIIb-fold ratio [4]: 18
S239D/I332E alemtuzumab (antibody)				0.49	3.3	
V264I/I332E alemtuzumab (antibody)	14	4		0.6	2.5	Kd [6]: 52 nM

From patent WO2006085967A2
